The source of these data is patent publication US20120094899A1 (Takeda / Millennium, published 2012).

One assay has as its target T1, human TGR1 (human, UniProt Q9GZQ4 1-415).
T1 construct: whole, on cells; Assayed as the membrane fraction of TGR1-expressing CHO cells (1.1 mg/mL protein); also called NMUR2; TGR1 receptor
The experiment in a line: displacement of 125I-NMU8 from human TGR1 CHO membrane fraction; IC50 relative to NMU-8.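 Note: competitive binding on TGR1-expressing CHO cell membranes, with compounds tested as DMSO dilution series and incubated for 70 min at 25 °C.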 A general note: Loss of bound radioactivity is the signal in a displacement assay; it reports binding, not function.

Assay [1] concerns the target T2, Human FM3 (human), Q9HB89.
T2 chain: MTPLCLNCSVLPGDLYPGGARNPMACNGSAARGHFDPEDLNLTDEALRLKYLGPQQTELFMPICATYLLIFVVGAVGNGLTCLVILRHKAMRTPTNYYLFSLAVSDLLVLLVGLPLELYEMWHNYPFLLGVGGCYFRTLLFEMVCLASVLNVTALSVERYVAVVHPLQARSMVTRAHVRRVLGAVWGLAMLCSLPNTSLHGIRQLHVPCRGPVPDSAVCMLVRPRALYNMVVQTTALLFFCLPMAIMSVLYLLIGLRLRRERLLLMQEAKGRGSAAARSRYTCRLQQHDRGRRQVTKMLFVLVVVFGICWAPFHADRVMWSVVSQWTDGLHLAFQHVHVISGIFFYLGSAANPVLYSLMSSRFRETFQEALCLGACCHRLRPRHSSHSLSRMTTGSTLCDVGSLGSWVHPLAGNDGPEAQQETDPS
The experiment in a line: displacement of 125I-NMU8 from human FM3 CHO membrane fraction; IC50 relative to NMU-8. Conditions: remark: other sources report otherwise.

Another assay concerns the target T3, Human FM3 (human, UniProt Q9HB89 1-426).
T3 construct: whole, on cells; Assayed as the membrane fraction of FM3-expressing CHO cells (1.2 mg/mL protein); also called NMUR1; FM3 receptor
T3 sequence (looked up): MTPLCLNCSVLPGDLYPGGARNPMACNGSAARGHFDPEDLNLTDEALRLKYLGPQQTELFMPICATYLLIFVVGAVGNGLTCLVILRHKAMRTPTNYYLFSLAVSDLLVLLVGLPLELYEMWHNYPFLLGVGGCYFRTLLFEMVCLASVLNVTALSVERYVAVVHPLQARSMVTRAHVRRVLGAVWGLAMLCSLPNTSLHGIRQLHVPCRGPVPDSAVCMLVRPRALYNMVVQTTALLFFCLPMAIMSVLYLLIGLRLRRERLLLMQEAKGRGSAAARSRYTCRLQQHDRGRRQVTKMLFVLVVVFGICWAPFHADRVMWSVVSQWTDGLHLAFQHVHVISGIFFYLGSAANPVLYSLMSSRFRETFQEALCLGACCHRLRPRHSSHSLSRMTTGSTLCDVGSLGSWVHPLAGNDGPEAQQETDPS
Described as above.

Non-standard residues stand in square brackets, D forms with d. No end group written: not given here. *: point of attachment. Acetyl(2-(piperazin-1-yl)) = O=C(CN1CCNCC1)*; PEG 20 kDa = methoxypolyethylene glycol 20k; 2Nal = N[C@@H](Cc1ccc2ccccc2c1)C(=O)O; Arg(Me) = CNC(=N)NCCC[C@H](N)C(=O)O; NMeY = CN[C@@H](Cc1ccc(O)cc1)C(=O)O; NMeR = CN[C@@H](CCCNC(=N)N)C(=O)O; Cha = N[C@@H](CC1CCCCC1)C(=O)O; NMeL = CN[C@@H](CC(C)C)C(=O)O; NMeA = CN[C@@H](C)C(=O)O; βAla = NCCC(=O)O

T1 sequence (Q9GZQ4 whole entry): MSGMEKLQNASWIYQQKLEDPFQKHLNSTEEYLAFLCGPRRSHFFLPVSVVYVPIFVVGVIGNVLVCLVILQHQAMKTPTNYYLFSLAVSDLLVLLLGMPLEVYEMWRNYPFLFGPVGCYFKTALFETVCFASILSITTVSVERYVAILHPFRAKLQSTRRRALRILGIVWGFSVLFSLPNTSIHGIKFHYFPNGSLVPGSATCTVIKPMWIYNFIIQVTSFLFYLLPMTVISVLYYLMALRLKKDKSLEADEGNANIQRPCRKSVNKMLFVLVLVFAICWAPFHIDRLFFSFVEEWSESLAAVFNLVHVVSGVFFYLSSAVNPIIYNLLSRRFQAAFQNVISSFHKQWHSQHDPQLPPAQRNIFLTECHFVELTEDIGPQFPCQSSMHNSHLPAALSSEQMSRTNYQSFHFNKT
Protocol for human TGR1: 15 mL of homogenized buffer (10 mM NaHCO₃ (pH 7.4), 5 mM EDTA, protease inhibitor=0.5 mM PMSF, 10 μg/mL Pepstatin A, 20 μg/mL Leupeptin, and 4 μg/mL E-64) was added to the obtained cell pellets, the cellular membrane was disrupted using a polytron homogenizer (Kinematica GmbH), centrifugation was conducted for 10 minutes at 1,000 g at 4° C., and the supernatant was collected. This process was further repeated twice, and ultracentrifugation was conducted for 60 minutes at 30,000 rpm at 4° C. Thereafter, 8 mL of homogenized buffer was added to the pellets and suspended homogeneously to prepare a membrane fraction. The protein concentration of the FM3-expressing CHO cellular membrane fraction was 1.2 mg/mL, and the protein concentration of the TGR1-expressing CHO cellular membrane fraction was 1.1 mg/mL.
Specifically, each of the NMU derivatives and PEG conjugates was dissolved in DMSO so as to prepare 2 μL of each dilution series of the NMU derivatives and PEG conjugates. […] The resulting product was thoroughly mixed, and then a reaction was carried out at 25° C. for 70 minutes.

B1: NpipAc0,Phe1,Trp2,Ala6-NMU-8 (Compound 11) (peptide)
peptide: {Acetyl(2-(piperazin-1-yl))}-FWLFRARN-NH2
SMILES: CC(C)C[C@H](NC(=O)[C@H](Cc1c[nH]c2ccccc12)NC(=O)[C@H](Cc1ccccc1)NC(=O)CN1CCNCC1)C(=O)N[C@@H](Cc1ccccc1)C(=O)N[C@@H](CCCNC(=N)N)C(=O)N[C@@H](C)C(=O)N[C@@H](CCCNC(=N)N)C(=O)N[C@@H](CC(N)=O)C(N)=O
notes: also called 2-(piperazin-1-yl)acetyl-[Phe1,Trp2,Ala6]-NMU-8
Consider B1, for which the IC50 ratio with human TGR1 was 0.19 ratio to NMU-8 (=1). The IC50 ratio (ratio to NMU-8 (=1)) in assay [1] came to 280.

B2: PEG20k-NpipAc0,Phe1,Trp2,Ala6-NMU-8 (Compound K) (peptide)
peptide: {PEG 20 kDa-Acetyl(2-(piperazin-1-yl))}-FWLFRARN-NH2
notes: also called PEG20k-NPipAc-Phe1, Trp2,Ala6-NMU-8
In the case of B2, the IC50 ratio with human TGR1 was 34 ratio to NMU-8 (=1). In assay [1], the IC50 ratio (ratio to NMU-8 (=1)) was determined as 11000.

B3: PEG20k-NpipAc0,Nal(2)2,NMeAla6-NMU-8 (Compound V) (peptide)
peptide: {mPEG 20 kDa-Acetyl(2-(piperazin-1-yl))}-Y[2Nal]LFR[NMeA]RN-NH2
notes: X stands for Nal(2); also called PEG20k-NpipAc-Nal(2)2,NMeAla6-NMU8
B3: the IC50 ratio in the assay with human TGR1 is 27 ratio to NMU-8 (=1); with Human FM3 it was 10000 ratio to NMU-8 (=1).

B4: β-Ala0,Cha3-NMU-8 (Compound 6) (peptide)
peptide: [βAla]YF[Cha]FRPRN-NH2
modifications: N-terminus assumed
SMILES: N=C(N)NCCC[C@H](NC(=O)[C@@H]1CCCN1C(=O)[C@H](CCCNC(=N)N)NC(=O)[C@H](Cc1ccccc1)NC(=O)[C@H](CC1CCCCC1)NC(=O)[C@H](Cc1ccccc1)NC(=O)[C@H](Cc1ccc(O)cc1)NC(=O)CCN)C(=O)N[C@@H](CC(N)=O)C(N)=O
notes: X stands for Cha
Take B4: the figures for the IC50 ratio in the assay with human TGR1 and with Human FM3 were 9.9 ratio to NMU-8 (=1) and 0.55 ratio to NMU-8 (=1), respectively.

B5: NpipAc0,Trp2,Ala6-NMU-8 (Compound 20) (peptide)
peptide: {Acetyl(2-(piperazin-1-yl))}-YWLFRARN-NH2
SMILES: CC(C)C[C@H](NC(=O)[C@H](Cc1c[nH]c2ccccc12)NC(=O)[C@H](Cc1ccc(O)cc1)NC(=O)CN1CCNCC1)C(=O)N[C@@H](Cc1ccccc1)C(=O)N[C@@H](CCCNC(=N)N)C(=O)N[C@@H](C)C(=O)N[C@@H](CCCNC(=N)N)C(=O)N[C@@H](CC(N)=O)C(N)=O
notes: also called 2-(piperazin-1-yl)acetyl-[Trp2,Ala6]-NMU8
For the molecule B5, the values for the IC50 ratio with human TGR1 and with Human FM3 were 1.9 ratio to NMU-8 (=1) and 900 ratio to NMU-8 (=1), respectively.

B6: β-Ala0,Gln5-NMU-8 (Compound 1) (peptide)
peptide: [βAla]YFLFQPRN-NH2
modifications: N-terminus assumed
SMILES: CC(C)C[C@H](NC(=O)[C@H](Cc1ccccc1)NC(=O)[C@H](Cc1ccc(O)cc1)NC(=O)CCN)C(=O)N[C@@H](Cc1ccccc1)C(=O)N[C@@H](CCC(N)=O)C(=O)N1CCC[C@H]1C(=O)N[C@@H](CCCNC(=N)N)C(=O)N[C@@H](CC(N)=O)C(N)=O
As for B6, the IC50 ratio with human TGR1 was 3.4 ratio to NMU-8 (=1); with Human FM3, 15 ratio to NMU-8 (=1).

B7: β-Ala0,Val3-NMU-8 (Compound 4) (peptide)
peptide: [βAla]YFVFRPRN-NH2
modifications: N-terminus assumed
SMILES: CC(C)[C@H](NC(=O)[C@H](Cc1ccccc1)NC(=O)[C@H](Cc1ccc(O)cc1)NC(=O)CCN)C(=O)N[C@@H](Cc1ccccc1)C(=O)N[C@@H](CCCNC(=N)N)C(=O)N1CCC[C@H]1C(=O)N[C@@H](CCCNC(=N)N)C(=O)N[C@@H](CC(N)=O)C(N)=O
B7: the IC50 ratio in the assay with human TGR1 was 0.37 ratio to NMU-8 (=1); with Human FM3, 0.43 ratio to NMU-8 (=1).

B8: β-Ala0,Pro1-NMU-8 (Compound 8) (peptide)
peptide: [βAla]PFLFRPRN-NH2
modifications: N-terminus assumed
SMILES: CC(C)C[C@H](NC(=O)[C@H](Cc1ccccc1)NC(=O)[C@@H]1CCCN1C(=O)CCN)C(=O)N[C@@H](Cc1ccccc1)C(=O)N[C@@H](CCCNC(=N)N)C(=O)N1CCC[C@H]1C(=O)N[C@@H](CCCNC(=N)N)C(=O)N[C@@H](CC(N)=O)C(N)=O
On to B8, for which the IC50 ratio with human TGR1 was 3.8 ratio to NMU-8 (=1); with Human FM3, 0.59 ratio to NMU-8 (=1).

B9: β-Ala0,Tyr2-NMU-8 (Compound 5) (peptide)
peptide: [βAla]YYLFRPRN-NH2
modifications: N-terminus assumed
SMILES: CC(C)C[C@H](NC(=O)[C@H](Cc1ccc(O)cc1)NC(=O)[C@H](Cc1ccc(O)cc1)NC(=O)CCN)C(=O)N[C@@H](Cc1ccccc1)C(=O)N[C@@H](CCCNC(=N)N)C(=O)N1CCC[C@H]1C(=O)N[C@@H](CCCNC(=N)N)C(=O)N[C@@H](CC(N)=O)C(N)=O
notes: also called β-Ala0,Try2-NMU-8
B9: the values for the IC50 ratio in the assay with human TGR1 and in the assay with Human FM3 were 0.17 ratio to NMU-8 (=1) and 0.44 ratio to NMU-8 (=1), respectively.

{mPEG 20 kDa-βAla}-[NMeY]F[NMeL]F[NMeR]PRN-NH2 [PEG20k-NH-β-Ala0,NMeTyr1,NMeLeu3,NMeArg5-NMU-8 (Compound P)]: the IC50 ratio is 240 ratio to NMU-8 (=1) with human TGR1 and 83 ratio to NMU-8 (=1) with Human FM3.

With {PEG 20 kDa-βAla}-YWLFR[NMeA]RN-NH2 [PEG20k-NH-β-Ala0,Trp2,NMeAla6-NMU-8 (Compound Q)], the IC50 ratio with human TGR1 was 47 ratio to NMU-8 (=1); with Human FM3 it was 1600 ratio to NMU-8 (=1).

B10: β-Ala0,NMeLeu3,NMeArg7-NMU-8 (Compound 15) (peptide)
peptide: [βAla]YF[NMeL]FRP[NMeR]N-NH2
modifications: N-terminus assumed
SMILES: CC(C)C[C@@H](C(=O)N[C@@H](Cc1ccccc1)C(=O)N[C@@H](CCCNC(=N)N)C(=O)N1CCC[C@H]1C(=O)N(C)[C@@H](CCCNC(=N)N)C(=O)N[C@@H](CC(N)=O)C(N)=O)N(C)C(=O)[C@H](Cc1ccccc1)NC(=O)[C@H](Cc1ccc(O)cc1)NC(=O)CCN
As for B10, the results for the IC50 ratio with human TGR1 and in the assay with Human FM3 were 19 ratio to NMU-8 (=1) and 8.6 ratio to NMU-8 (=1), respectively.

Take {mPEG 30 kDa-βAla}-YFLFRP[Arg(Me)]N-NH2 [PEG30k-NH-β-Ala0,Arg(Me)7-NMU-8 (Compound N)]: the IC50 ratio with human TGR1 is 63 ratio to NMU-8 (=1); in the assay with Human FM3, 290 ratio to NMU-8 (=1).

{mPEG 30 kDa-βAla}-YFLF[NMeR]PRN-NH2 [PEG30k-NH-β-Ala0,NMeArg5-NMU-8 (Compound M)]: the results for the IC50 ratio with human TGR1 and in the assay with Human FM3 were 29 ratio to NMU-8 (=1) and 9 ratio to NMU-8 (=1), respectively.

B11: NpipAc0,Nal(2)2,NMeAla6-NMU-8 (Compound 22) (peptide)
peptide: {Acetyl(2-(piperazin-1-yl))}-Y[2Nal]LFR[NMeA]RN-NH2
SMILES: CC(C)C[C@H](NC(=O)[C@H](Cc1ccc2ccccc2c1)NC(=O)[C@H](Cc1ccc(O)cc1)NC(=O)CN1CCNCC1)C(=O)N[C@@H](Cc1ccccc1)C(=O)N[C@@H](CCCNC(=N)N)C(=O)N(C)[C@@H](C)C(=O)N[C@@H](CCCNC(=N)N)C(=O)N[C@@H](CC(N)=O)C(N)=O
notes: X stands for Nal(2); also called 2-(piperazin-1-yl)acetyl-[Nal(2)2,NMeAla6]-NMU8
With B11, the IC50 ratio with human TGR1 is 1.7 ratio to NMU-8 (=1); with Human FM3, 99 ratio to NMU-8 (=1).

B12: PEG30k-NH-β-Ala0,Cha3-NMU-8 (Compound F) (peptide)
peptide: {mPEG 30 kDa-βAla}-YF[Cha]FRPRN-NH2
notes: X stands for Cha; also called PEG-NH-β-Ala0,Cha3-NMU-8
Take B12: the IC50 ratio with human TGR1 was 11 ratio to NMU-8 (=1); in the assay with Human FM3 it was 1.3 ratio to NMU-8 (=1).

In the case of {mPEG 20 kDa-βAla}-YF[NMeL]FRP[NMeR]N-NH2 [PEG20k-NH-β-Ala0,NMeLeu3,NMeArg7-NMU-8 (Compound O)], the IC50 ratio was 170 ratio to NMU-8 (=1) with human TGR1 and 75 ratio to NMU-8 (=1) with Human FM3.

B13: β-Ala0,Arg(Me)7-NMU-8 (Compound 14) (peptide)
peptide: [βAla]YFLFRP[Arg(Me)]N-NH2
modifications: N-terminus assumed
SMILES: CNC(=N)NCCC[C@H](NC(=O)[C@@H]1CCCN1C(=O)[C@H](CCCNC(=N)N)NC(=O)[C@H](Cc1ccccc1)NC(=O)[C@H](CC(C)C)NC(=O)[C@H](Cc1ccccc1)NC(=O)[C@H](Cc1ccc(O)cc1)NC(=O)CCN)C(=O)N[C@@H](CC(N)=O)C(N)=O
Regarding B13, the IC50 ratio with human TGR1 is 3.6 ratio to NMU-8 (=1); in the assay with Human FM3, 6.3 ratio to NMU-8 (=1).
